Experimental findings from US20230039279 are described below.

Data set [1] concerns the target T1, HNE peptide substrate H2, GRCR-PMAVVQSVP-RCRG (not fully specified).
T1 chain: GRCRPMAVVQSVPRCRG

In data set [2] the target is T2, MMP-9 sensitive peptide (GPRSLSG-RRCG) linked ibuprofen (not fully specified).
T2 chain: GPRSLSGRRCG

B1: human neutrophil elastase (HNE) (protein)
chain: IVGGRRARPHAWPFMVSLQLRGGHFCGATLIAPNFVMSAAHCVANVNVRAVRVVLGAHNLSRREPTRQVFAVQRIFENGYDPVNLLNDIVILQLNGSATINANVQVAQLPAQGRRLGNGVQCLAMGWGLLGRNRGIASVLQELNVTVVTSLCRRSNVCTLVRGRQAGVCFGDSGSPLVCNGLIHGIASFVRGGCASGLYPDAFAPVAQFVNWIDSIIQ
For the protein B1, the “degradation of H2-M2 combinational hydrogel and release of PLGA particles over 24 hours” value in data set [1] was “H2 and M2 peptide substrates were preferentially cleaved by HNE and MMP-9 proteases respectively”. Moreover, in data set [2], the “maximum cumulative drug release at 48 hours from the dual-responsive conjugate hydrogel, HNE alone (1 µg/ml)” value was “maximum cumulative drug release reached 24%, which was much lower than the release in enzyme MMP-9 solution”; the “specificity of protease-triggered ibuprofen liberation (FIG. 10B)” value was “the peptide sequence, GPRSLSGRRCG (SEQ ID NO: 20), as a spacer illustrated a good specificity toward MMP-9 compared to cathepsin B and human neutrophil elastase (HNE)”.
